Assays:
[1] = tested on: COCC1CNc2nc(N)[nH]c(=O)c2N1; assay: Tyrosine hydroxylase cofactor assay; assay type: biochemical
Method: Tyrosine hydroxylase was partially purified through a 25-45% ammonium sulfate fraction. […] The enzyme was assayed by a modification of the method of Nagatsu, T., Levitt, M., and Udenfriend, S. (Anal. Biochem. 9, 122, (1964)) where the Dowex chromatography step was replaced by a charcoal extraction.

[2] = tested on: C[C@H](O)[C@H](O)[C@H]1CNc2nc(N)[nH]c(=O)c2N1; assay: purified protein, by the assay type

Sequence of Tyrosine hydroxylase (Homo sapiens) (chain, as listed by the source): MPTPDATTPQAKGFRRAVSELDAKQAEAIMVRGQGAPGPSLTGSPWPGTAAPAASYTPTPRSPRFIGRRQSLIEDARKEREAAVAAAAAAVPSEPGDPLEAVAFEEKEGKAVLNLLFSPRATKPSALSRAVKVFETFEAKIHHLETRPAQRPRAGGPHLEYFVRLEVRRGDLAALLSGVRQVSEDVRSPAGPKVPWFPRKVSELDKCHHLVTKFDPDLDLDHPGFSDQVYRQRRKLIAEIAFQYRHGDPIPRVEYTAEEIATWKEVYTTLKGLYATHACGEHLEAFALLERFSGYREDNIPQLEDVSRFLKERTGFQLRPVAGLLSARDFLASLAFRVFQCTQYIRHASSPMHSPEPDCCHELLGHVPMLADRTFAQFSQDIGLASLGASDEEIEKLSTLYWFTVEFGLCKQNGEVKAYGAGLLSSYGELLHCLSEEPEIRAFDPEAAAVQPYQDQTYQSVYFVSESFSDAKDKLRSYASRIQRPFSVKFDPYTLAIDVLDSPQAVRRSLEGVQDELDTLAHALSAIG

Question: For Tyrosine hydroxylase (Homo sapiens), which Km [1] is on record?
Answer: Its Km is 65 µM.

Question: What about the Km [2] of the same substance?
Answer: Its Km is 110 µM.

— patent publication US4587340A, “Biopterin analogs” (Burroughs Wellcome Co., priority 1984, dated 1986)
